For experiment [1], the target named is T1, importin beta (human, UniProt Q14974 1-876).
T1 construct: also called imp beta; nuclear transport shuttle for SREBPs
Put plainly: pull-down from human Jurkat T cell lysate, immunoblot. The procedure:
(§1) Cell-penetrating peptide cSN50.1 (2986 Da) and other peptides listed in Table 1 were synthesized and prepared as previously described (Liu, D., et al., (2009) Mol Ther 17, 796-802). Biotinylated NTM peptides and their constituent modules were prepared in the same manner, with biotin added to the amino terminus at the last step of synthesis. When necessary, a 5-7 hydrophilic amino acid tag was added to peptide modules to facilitate solubility. For i.p. administration, 200 μl aliquots containing 0.4 or 0.7 mg of cSN50.1 in saline was injected at 8 h or 12 h intervals. Alternatively, 10 mg cSN50.1 in 100 μl sterile H₂O was administered subcutaneously from ALZET Osmotic Pumps (1007D) placed aseptically in interscapular areas. A bolus of 0.7 mg cSN50.1 in 100 μl saline was administered i.p. at weekly pump changes to assure steady NTM bioavailability. Dosage schedules were developed based on previous experimental protocols and half-life studies. Control mice received sterile saline in the same volumes as NTM. Importins pull-down assay. Ten nmols of biotinylated NTM peptides or their constituent modules depicted in Table 1 (SN50, cSN50.1, N50, cN50.1, SSHR-1, SSHR-2) were incubated overnight at 4° C. with 1.5 mg of whole cell extract from unstimulated human Jurkat T cells or serum-starved human HepG2 cells lysed in binding buffer (10 mM HEPES at pH 7.9, 150 mM NaCl, 10 mM KCl, 2.5 mM MgCl₂, 1 mM EGTA, 1 mM DTT, 0.1% NP-40, 1% protease inhibitor cocktail). Lysate was cleared by centrifugation (16,000×g for 30 min at 4° C.) and transferred to a fresh tube containing high capacity Neutravidin beads (Thermo Scientific). After 4 h, beads were separated from lysate/peptide mixture by centrifugation (30 s at 1,000×g) and washed 3 times with binding buffer and 2 times with PBS. Beads were boiled for 10 min in SDS loading buffer, and protein content was analyzed by immunoblotting with a panel of anti-importins alpha and beta antibodies and anti-GAPDH (Abcam) as a cellular protein control.
Background: A western blot detects proteins with antibodies after separation by electrophoresis.

The target of experiment [2] is T2, GAPDH (human, UniProt P04406 2-335).
T2 construct: Cellular protein control of the pull-down; also called control cytoplasmic marker protein GAPDH; control protein GAPDH
T2 sequence (P04406 2-335 limits assumed): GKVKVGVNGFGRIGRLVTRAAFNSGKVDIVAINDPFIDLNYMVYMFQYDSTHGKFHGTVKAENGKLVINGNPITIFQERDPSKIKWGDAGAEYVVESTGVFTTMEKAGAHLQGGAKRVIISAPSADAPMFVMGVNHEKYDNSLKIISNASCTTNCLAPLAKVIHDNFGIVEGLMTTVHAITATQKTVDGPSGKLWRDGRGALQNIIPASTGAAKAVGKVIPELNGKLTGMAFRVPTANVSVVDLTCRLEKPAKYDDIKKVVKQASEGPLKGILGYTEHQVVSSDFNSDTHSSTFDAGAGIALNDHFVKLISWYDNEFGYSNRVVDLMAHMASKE
The description is as above. The protocol:
as §1

Experiment [3] concerns the target importin alpha 1 (human, UniProt P52292 2-529). Nature of the experiment: pull-down from cell lysate, immunoblot.
The target of experiment [4] is T3, importin alpha 5 (human, UniProt P52294 1-538).
T3 construct: also called importins alpha; importins/karyopherins alpha
T3 sequence (P52294 whole entry): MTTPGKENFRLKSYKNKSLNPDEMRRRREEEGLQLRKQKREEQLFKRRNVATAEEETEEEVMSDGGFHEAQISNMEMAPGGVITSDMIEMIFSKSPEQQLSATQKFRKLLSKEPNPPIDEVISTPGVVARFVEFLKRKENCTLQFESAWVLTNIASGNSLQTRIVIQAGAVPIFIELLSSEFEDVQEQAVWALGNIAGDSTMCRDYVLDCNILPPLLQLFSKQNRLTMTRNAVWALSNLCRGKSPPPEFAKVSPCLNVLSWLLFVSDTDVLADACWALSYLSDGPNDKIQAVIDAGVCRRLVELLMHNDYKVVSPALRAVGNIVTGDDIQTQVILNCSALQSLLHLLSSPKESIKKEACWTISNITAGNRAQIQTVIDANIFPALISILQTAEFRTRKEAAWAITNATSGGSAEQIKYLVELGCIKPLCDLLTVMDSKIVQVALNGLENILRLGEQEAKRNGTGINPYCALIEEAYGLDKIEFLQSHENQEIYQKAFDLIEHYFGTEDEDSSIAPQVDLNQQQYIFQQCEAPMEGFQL
Put plainly: pull-down from cell lysate, immunoblot.

These results are taken from patent publication US20140336113A1 (VANDERBILT UNIVERSITY, published 2014).

Positions of bridges follow the written chain, without caps; N, C: chain ends. No end group written: not given here. *: point of attachment. Biotin = O=C1N[C@H]2[C@H](CS[C@H]2CCCCC(=O)*)N1

T1 sequence (Q14974 whole entry): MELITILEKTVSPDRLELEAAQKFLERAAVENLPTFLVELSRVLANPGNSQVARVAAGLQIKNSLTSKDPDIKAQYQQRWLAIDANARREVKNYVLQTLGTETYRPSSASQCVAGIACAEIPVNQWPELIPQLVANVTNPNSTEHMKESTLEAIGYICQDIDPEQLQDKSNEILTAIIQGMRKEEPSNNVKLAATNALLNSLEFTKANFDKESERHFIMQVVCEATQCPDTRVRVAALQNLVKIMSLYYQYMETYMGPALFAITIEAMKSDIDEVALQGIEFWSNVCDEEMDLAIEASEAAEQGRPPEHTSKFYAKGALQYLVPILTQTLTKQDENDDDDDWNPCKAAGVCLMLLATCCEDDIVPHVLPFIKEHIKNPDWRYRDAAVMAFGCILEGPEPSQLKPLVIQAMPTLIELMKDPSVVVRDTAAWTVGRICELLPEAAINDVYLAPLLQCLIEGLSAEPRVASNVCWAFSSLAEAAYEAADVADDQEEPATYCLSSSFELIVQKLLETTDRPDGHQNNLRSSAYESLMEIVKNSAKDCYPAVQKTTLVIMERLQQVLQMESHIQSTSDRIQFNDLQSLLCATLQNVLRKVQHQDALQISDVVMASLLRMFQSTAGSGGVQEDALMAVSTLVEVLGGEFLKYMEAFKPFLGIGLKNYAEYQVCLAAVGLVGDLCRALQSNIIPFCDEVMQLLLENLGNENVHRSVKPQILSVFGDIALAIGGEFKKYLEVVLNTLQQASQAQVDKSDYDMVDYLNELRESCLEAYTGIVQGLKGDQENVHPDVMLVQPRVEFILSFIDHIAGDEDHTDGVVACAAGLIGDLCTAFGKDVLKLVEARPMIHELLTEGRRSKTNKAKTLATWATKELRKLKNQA

Biotin-CVQRKRQKLMPC (disulfide 1-12 (inferred), NLS segment of cSN50.1, no SSHR) [biotinylated cN50.1 peptide]: the binding result in experiment [1] is listed as “no binding”.

B1: biotinylated cSN50.1 peptide (peptide)
peptide: Biotin-AAVALLPAVLLALLAPCVQRKRQKLMPC
modifications: disulfide 17-28 (inferred)
notes: the N-biotinylated version was used in the pull-down assays; also called NTM; full-length biotinylated NTM
On to B1, for which the binding result in experiment [2] is recorded as “no binding”.

B2: biotinylated cSN50.1 Beta peptide (peptide)
peptide: Biotin-AAVALLPAVLLALLAPCVQRDEQKLMPC
modifications: disulfide 17-28 (inferred)
notes: cSN50.1 with lysine 21 replaced by aspartic acid and arginine 22 replaced by glutamic acid
Take B2: the binding result in experiment [3] and in experiment [4] was “no binding” throughout.

B3: biotinylated SN50 peptide (peptide)
peptide: Biotin-AAVALLPAVLLALLAPVQRKRQKLMP
notes: also called NTM; full-length biotinylated NTM
As for B3, the binding result in experiment [2] is given as “no binding”. For the molecule Biotin-VQRKRQKLMP (NLS segment of SN50, no SSHR) [biotinylated N50 peptide], the binding result in experiment [1] is reported as “no binding”.
